These results are taken from patent publication US20220064294A1 (ARCUS BIOSCIENCES, published 2022).

The labels stand for the following.
T1: human TIGIT, full length, on cells (human, UniProt Q495A1 22-244)
T1 construct: also called hTIGIT; hTIGIT-CHO
T1 sequence: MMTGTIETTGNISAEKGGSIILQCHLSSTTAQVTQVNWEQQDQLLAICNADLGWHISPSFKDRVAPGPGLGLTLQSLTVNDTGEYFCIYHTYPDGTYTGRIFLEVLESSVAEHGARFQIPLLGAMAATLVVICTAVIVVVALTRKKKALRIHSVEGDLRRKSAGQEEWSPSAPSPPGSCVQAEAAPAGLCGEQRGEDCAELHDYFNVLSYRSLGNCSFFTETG

T2: cTIGIT-His (cynomolgus monkey)
T2 construct: also called His-tagged cyno TIGIT protein extracellular domain; soluble cTIGIT-His
T2 chain: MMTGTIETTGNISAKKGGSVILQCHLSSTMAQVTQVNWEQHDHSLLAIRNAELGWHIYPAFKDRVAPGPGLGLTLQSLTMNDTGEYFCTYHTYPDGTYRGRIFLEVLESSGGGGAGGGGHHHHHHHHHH

T3: hTIGIT-His (human)
T3 construct: also called His-tagged human TIGIT protein extracellular domain; soluble hTIGIT-His
T3 chain: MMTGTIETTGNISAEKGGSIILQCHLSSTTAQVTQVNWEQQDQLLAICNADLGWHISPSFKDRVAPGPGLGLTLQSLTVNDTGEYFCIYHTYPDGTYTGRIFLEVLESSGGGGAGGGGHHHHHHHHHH

B1: 22B22 (antibody, V domains shown)
VH: EVQLVESGGGLVKPGGSLKLSCAASGFTFSSYAMSWVRQSPEKRLEWVAEISSGGSYTYYPDTVTGRFTISRDNAKNTLYLEMSSLRSEDTAMYYCARKRRDYYAMDYWGQGTSVTVSS
VL: DVQITQSPSYLAASPGETITINCRASKSISKYLAWYQEKPGKTNKLLIYSGSTLQSGIPSRFSGSGSGTDFTLTISSLEPEDFAMYYCQQHNEYPWTFGGGTKLEIK
notes: Mouse monoclonal antibody purified from hybridoma on Protein G; also called mAb 22B22; mouse anti-TIGIT clone 22B22
B2: 28P24 (antibody, V domains shown)
VH: QVQLQQSGAELVRPGTSVKMSCKAAGYTFTNYFIGWVKQRPGHGLDWIGDIYPGGGYTNYNEKFKGKATLTADTSSSTAYMQLSSLTSEDSAIYYCVRFYGNYVFAYWGQGTLVTVSA
VL: B1 VL with Y10C, S28T
notes: Mouse monoclonal antibody purified from hybridoma on Protein G; also called mAb 28P24; mouse anti-TIGIT clone 28P24
B3: 21B9 (antibody, V domains shown)
VH: B1 VH with A23T, P61T, A105G
VL: B1 VL with S56T
notes: Mouse monoclonal antibody purified from hybridoma on Protein G; also called mAb 21B9; mouse anti-TIGIT clone 21B9
B4: 28O12 (antibody, V domains shown)
VH: B1 VH with S31N, S53G, Y60H
VL: B1 VL
notes: Mouse monoclonal antibody purified from hybridoma on Protein G; also called mAb 28O12; mouse anti-TIGIT clone 28O12
B5: 21B16 (antibody, V domains shown)
VH: B1 VH with S31T, S56T, Y60F
VL: B1 VL with M85V
notes: Mouse monoclonal antibody purified from hybridoma on Protein G; also called mAb 21B16; mouse anti-TIGIT clone 21B16
B6: 5J24 (antibody, V domains shown)
VH: QVQLQQSGAELVRPGTSVKMSCKAAGYTFTNHWIGWVKQRPGHGLEWIGDIYPGGGYTNYNEKFKGKATLTADTSSSTAYMYLSSLTSEDSAIYYCARSYGYDLYAMDYWGQGTSVTVSS
VL: DIQMTQSPSSLSASLGERVSLTCRASQEISGYLSWLQQKPDGTIKRLIYAASTLGSGVPKRFSGSRSGSDYSLTISSLESEDFADYYCLQYDSYPFTFGAGTKLELK
notes: Mouse monoclonal antibody purified from hybridoma on Protein G; also called mAb 5J24; mouse anti-TIGIT clone 5J24
B7: 24F8 (antibody, V domains shown)
VH: DVQLQESGPDLVKPSQSLSLTCTVTGYSITSGYSWHWIRQFPGNKLDWMGYVHYSGSTNYNPSLKSRISITRDTSKNQFFLQLNSVTTEDTATFYCARMDYGNYGGAMDYWGQGTSVTVSS
VL: EIVMTQSHKFMSTSVGDRVSITCKASQDVRTAVAWYQQKPGQSPKLLIYSASYRYTGVPDRFTGSGSGTDFTFTISSVQAEDLAVYYCQQYYSTQWTFGGGTKLEIK
notes: Mouse monoclonal antibody purified from hybridoma on Protein G; also called mAb 24F8; mouse anti-TIGIT clone 24F8
B8: 30M18 (antibody, V domains shown)
VH: EVQLQQSGPELVKPGASVKISCKTSGYTFTEYTMHWVKQSHGKSLEWIGGINPNNGGTSYNQKFKGKATLTVDKSSSTAYMELRSLTSEDSAVYYCARSGHMDYGYVYWGQGTTLTVSS
VL: B7 VL with E1D, D28Y, R30S, A51P, Y91H, Q95P
notes: Mouse monoclonal antibody purified from hybridoma on Protein G; also called mAb 30M18; mouse anti-TIGIT clone 30M18
B9: 21F8 (antibody, V domains shown)
VH: DVQLQESGPGLVKPSQSLSLTCTVTGYSITSDYAWNWIRQFPGNKLEWMGYISYSGSTSYNPSLKSRISITRDTSKNQFFLQLNSVTTEDTATYYCARFMITTFAMDYWGQGTAVTVSS
VL: B7 VL with E1D, D28H, R30S, S52P, Y91H, S93N, Q95L
notes: Mouse monoclonal antibody purified from hybridoma on Protein G; also called mAb 21F8; mouse anti-TIGIT clone 21F8
B10: Hu24F8.1 Fab (Fab, V domains shown)
VH: QVQLQESGPGLVKPSETLSLTCAVYGYSITSGYSWHWIRQPPGKGLEWIGYVHYSGSTNYNPSLKSRVTISVDTSKNQFSLKLSSVTAADTAVYYCARMDYGNYGGAMDYWGQGTLVTVSS
VL: EIVMTQSPATLSVSPGERATLSCKASQDVRTAVAWYQQKPGQAPRLLIYSASYRYTGIPARFSGSGSGTEFTLTISSLQSEDFAVYYCQQYYSTQWTFGGGTKVEIK
notes: Fab with human IgG1/kappa constant domains, secreted as a SASA fusion protein and tested as supernatant; also called VH1 + VL2
B11: Hu24F8.3 Fab (Fab, V domains shown)
VH: B10 VH with E16G, Y25S, I38V, T74K
VL: DIQMTQSPSSLSASVGDRVTITCKASQDVRTAVAWYQQKPGKAPKLLIYSASYRYTGVPSRFSGSGSGTDFTFTISSLQPEDIATYYCQQYYSTQWTFGGGTKLEIK
notes: Fab with human IgG1/kappa constant domains, secreted as a SASA fusion protein and tested as supernatant; also called VH2 + VL1
B12: Hu24F8.2 Fab (Fab, V domains shown)
VH: B10 VH with E16G, Y25S, I38V, T74K
VL: B10 VL
notes: Fab with human IgG1/kappa constant domains, secreted as a SASA fusion protein and tested as supernatant; Not the same preparation as Fab24F8 (papain fragment); also called VH2 + VL2
B13: Hu24F8.4 Fab (Fab, V domains shown)
VH: B10 VH
VL: B11 VL
notes: Fab with human IgG1/kappa constant domains, secreted as a SASA fusion protein and tested as supernatant; also called VH1 + VL1
B14: chimera Fab mVH+mVL (mouse 24F8VH and 24F8VL with human IgG1/kappa Fab constant domains) (Fab, V domains shown)
VH: B7 VH
VL: B7 VL
notes: also called mouse/human chimera Fab

Residue numbers refer to the chain shown, from its start.

One may read the EC50 as the midpoint of the concentration-response curve. As usually defined, the IC50 is the midpoint of a concentration-inhibition curve. A word on the Kd: it is the constant that tells how readily two partners part at equilibrium. A word on the koff: it is the rate constant with which the complex falls apart. As a reminder, the kon is the second-order rate constant of association.

For one assay, the target named is T4, cynomolgus monkey TIGIT, full length, on cells (cynomolgus monkey).
T4 construct: Whole entry of 312 amino acids; also called cyno TIGIT; cTIGIT
As to the kind of experiment: flow cytometry on CHO-K1 cells expressing cyno TIGIT. Here is the method: (§1) These clones were further expanded, and antibodies were purified using a Protein G column. These purified antibodies were tested for binding to human and cyno TIGIT expressed on cell surface by flow cytometry. Stable CHO-K1 cell lines expressing full length human TIGIT clone 2A7 (Swiss-Prot Q495A1; SEQ ID NO: 80) or full length cyno TIGIT clone C10 (Swiss-Prot A0A2K5UW92; SEQ ID NO: 84) were developed. For the flow assay, cells were collected and incubated in 100 μL of HBSS buffer in the presence (or absence) of various concentrations of antibodies for 1 hr at 4° C. After washing with HBSS, antibody binding on cells was detected with 2 μg/mL of Alexa488-labeled goat anti-mouse IgG antibody (ThermoFisher Scientific, Cat #A-11001) for 30 min at 4° C. Cells were then washed and resuspended in PBS and subjected to flow cytometry using an Attune NxT flow cytometer (ThermoFisher Scientific, Waltham, Mass.). The geometric mean of the fluorescence intensity was obtained for the whole single cell population. Antibodies capable of binding to both human and cyno TIGIT expressed on cell surface were further tested for their blocking activity against recombinant human CD155 binding to human TIGIT on the surface of CHO cells. CHO-hTIGIT cells (10⁵ cells) were incubated with 2.5 μg/mL hCD155-Fc protein in the presence of various concentrations of antibody at room temperature for 1 hr. […] Cells were then washed and subjected to flow cytometry analysis.
As for B1, a half-maximal effect (EC50) was put at 0.58 nM.

As to B2, it took 1.26 nM to reach a half-maximal effect (EC50).

Consider B3, for which the EC50 was 0.631 nM.

Take B4: the EC50 is 0.71 nM.

In the case of B5, the half-maximal effective concentration (EC50) is 1.2 nM.

As for B6, the half-maximal effective concentration (EC50) was determined as 1.63 nM.

As for B7, the EC50 turned out to be 1.85 nM.

Take B8: the concentration giving a half-maximal response (EC50) stood at 1.17 nM.

With B9, the EC50 was 1.79 nM.

Another assay deals with T1, human TIGIT, full length, on cells. As to the kind of experiment: flow cytometry on CHO-K1 cells expressing human TIGIT. How it is done: as §1
(In general: In flow cytometry, cells or beads pass a laser one at a time.)
The molecule B1 registered a concentration for a half-maximal effect (EC50) of 0.507 nM.

For B2, the midpoint of the response, the EC50, lay at 0.466 nM.

B3 had a concentration giving a half-maximal response (EC50) of 0.506 nM.

B4 displayed a half-maximal effective concentration (EC50) of 0.638 nM.

Regarding B5, the concentration giving a half-maximal response (EC50) came out at 0.498 nM.

As for B6, the response was half-maximal at 0.704 nM (EC50).

Consider B7, for which a half-maximal effect (EC50) was put at 1.31 nM.

Molecule B8 had an EC50 of 0.825 nM.

In turn, B9 returned an EC50 of 0.952 nM.

A further assay shares this target. Briefly: flow cytometry, inhibition of hCD155-Fc binding to CHO-hTIGIT cells. How it is done:
as §1
Molecule B1 returned an IC50 of 0.83 nM.

B2 had an IC50 of 1.7 nM.

On to B3, for which the IC50 was 1.66 nM.

For B4, the concentration for half-maximal inhibition (IC50) came to 1.16 nM.

B5 displayed a half-maximal inhibitory concentration (IC50) of 1.15 nM.

In the case of B6, the half-maximal inhibitory concentration (IC50) was found to be 1.46 nM.

Turning to B7, the IC50 is 1.79 nM.

The molecule B8 returned an IC50 of 2.19 nM.

B9: the IC50 turned out to be 1.67 nM.

A further assay concerns the target T2, cTIGIT-His. Briefly: SPR, Biacore 8K, Fab-SASA supernatant captured on BSA chip, cTIGIT-His as analyte. From the text: (§2) Oligonucleotides were designed and synthesized as Fab fragments with human IgG1/kappa constant domains for the two VH and two VL grafted human acceptors and inserted into a vector system for high throughput screening of expression levels and biophysical properties, without the need for protein purification (Zhang & Hirama, Patent Application Publication US 2012/0178110). All four combinations of VH1 (SEQ ID NO: 76) or VH2 (SEQ ID NO: 78) with VL1 (SEQ ID NO: 79) or VL2 (SEQ ID NO: 77) (FIGS. 1J-1M) were screened along with a chimera Fab mVH+mVL constructed from the mouse 24F8VH (SEQ ID NO: 5) & 24F8VL (SEQ ID NO: 6) domains and human IgG1/kappa Fab constant domains. Supernatants of the Fabs, secreted as a SASA (single-domain antibody against serum albumin) fusion proteins were analyzed by surface plasmon resonance (SPR) using a Biacore 8K instrument with Fab capture using an BSA coated chip and soluble His-tagged TIGIT as the analyte. The kinetic binding data for human and cyno TIGIT are shown in Table 9 for the five Fab fragments.
(In general: SPR reads the build-up and loss of mass on a sensor chip optically.)
As to B10, the Kd was determined as 1.26 nM, the koff was 0.0014 s⁻¹ and the on-rate constant (kon) came to 1.11e+06 M⁻¹ s⁻¹.

On to B11, for which the dissociation constant (Kd) stood at 6 nM, the off-rate (koff) is 0.00585 s⁻¹ and the on-rate (kon) was 974000 M⁻¹ s⁻¹.

B12: the equilibrium dissociation constant (Kd) stood at 1.09 nM, the koff is 0.000808 s⁻¹ and the on-rate (kon) came to 742000 M⁻¹ s⁻¹.

Take B13: the Kd amounted to 9.81 nM, the koff stood at 0.0133 s⁻¹ and the kon stood at 1.35e+06 M⁻¹ s⁻¹.

As to B14, the dissociation constant Kd came to 0.474 nM, the koff amounted to 0.000728 s⁻¹ and the kon amounted to 1.54e+06 M⁻¹ s⁻¹.

The target of the next assay is T3, hTIGIT-His. As to the kind of experiment: SPR, Biacore 8K, Fab-SASA supernatant captured on BSA chip, hTIGIT-His as analyte.
Source text: as §2
For B10, the Kd turned out to be 0.0361 nM, the koff is 0.000111 s⁻¹ and the on-rate constant (kon) is 3.08e+06 M⁻¹ s⁻¹.

With B11, the Kd was found to be 0.242 nM, the off-rate (koff) was found to be 0.000481 s⁻¹ and the on-rate constant (kon) worked out at 1.99e+06 M⁻¹ s⁻¹.

Regarding B12, the Kd amounted to 0.045 nM, the koff was determined as 9.39e-05 s⁻¹ and the on-rate constant (kon) turned out to be 2.08e+06 M⁻¹ s⁻¹.

With B13, the Kd amounted to 0.28 nM, the koff worked out at 0.000855 s⁻¹ and the association rate constant (kon) worked out at 3.05e+06 M⁻¹ s⁻¹.

In the case of B14, the Kd worked out at 0.00127 nM, the off-rate constant (koff) worked out at 2.37e-06 s⁻¹ and the kon is 1.86e+06 M⁻¹ s⁻¹.
